Values of other authors in PMC11507603.

Molecular target: Ubiquitin (UniProt P0CG48)
Experiment: SPR

Epsin Ent1 ENTH, sequence (Q12518 8-146): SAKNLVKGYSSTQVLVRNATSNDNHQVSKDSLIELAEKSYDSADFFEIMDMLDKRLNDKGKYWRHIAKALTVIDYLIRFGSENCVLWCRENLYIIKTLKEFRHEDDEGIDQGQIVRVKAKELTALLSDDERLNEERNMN

- Kd: 2300 µM
Substance: Epsin Ent1 ENTH (from UniProt Q12518)
